Measurements published in paper PMC3282769, “New Insight into the Transcarbamylase Family: The Structure of Putrescine Transcarbamylase, a Key Catalyst for Fermentative Utilization of Agmatine” (PLoS ONE, 2012).

Tests used:
[1] = test system: NCCCCN; assay: carbamylputrescine production, colorimetric (Archibald reaction); hyperbolic fit; format: biochemical, Enterococcus faecalis; conditions: 10 mM carbamylphosphate, 50 mM Tris-HCl pH 7, 37°C
[2] = test system: NCCCCN; assay: purified protein; conditions: 10 mM carbamylphosphate, 50 mM Tris-HCl pH 7, 37°C, 230YGLY233 replaced by VSMG

Row | Substance | Km [1] [mM] | Km [2] [mM]
1 | PTC (putrescine transcarbamylase) (Enterococcus faecalis V583) | 1.41 ± 0.22 | 
2 | PTC (putrescine transcarbamylase) (Enterococcus faecalis V583; G231S/L232M/Y230V/Y233G) |  | 32.9 ± 8.8
